From the supplement of paper PMC11246515 come the findings set out here.

± gives the standard deviation of the averaged measurements. Where only a bound is given, the exact number is not on record here.

This data set is described as follows: total protein half-life in vivo (active degradation + dilution); higher = more stable protein.
[1] abbreviates: E. coli NCM3722 delta-clpP, growth: N-lim chemostat, doubling time 6 h.
Setting [2] is: E. coli NCM3722 delta-hslV, growth: N-lim chemostat, doubling time 6 h.
[3] abbreviates: E. coli NCM3722 delta-lon, growth: N-lim chemostat, doubling time 6 h.
Setting [4] is: E. coli NCM3722 delta-smpB, growth: N-lim chemostat, doubling time 6 h.
The mark [5] stands for this setting: wild type E. coli NCM3722, growth: C-lim chemostat, doubling time 6 h.
The mark [6] stands for this setting: wild type E. coli NCM3722, growth: C-lim chemostat, doubling time 12 h.
Setting [7] is: wild type E. coli NCM3722, growth: N-lim chemostat, doubling time 6 h.
[8] abbreviates: wild type E. coli NCM3722, growth: N-lim chemostat, doubling time 12 h.
The mark [9] stands for this setting: wild type E. coli NCM3722, growth: P-lim chemostat, doubling time 6 h.
Where [10] appears, read: wild type E. coli NCM3722, growth: P-lim chemostat, doubling time 12 h.
The mark [11] stands for this setting: wild type E. coli NCM3722, growth: C-lim chemostat, doubling time 3 h.
Where [12] appears, read: E. coli NCM3722 delta-clpP delta-lon delta-hslV, growth: N-lim chemostat, doubling time 6 h.

For the sequence “MEFFKKTALAALVMGFSGAALALPNITILATGGTIAGGGDSATKSNYTVGKVGVENLVNAVPQLKDIANVKGEQVVNIGSQDMNDNVWLTLAKKINTDCDKTDGFVITHGTDTMEETAYFLDLTVKCDKPVVMVGAMRPSTSMSADGPFNLYNAVVTAADKASANRGVLVVMNDTVLDGRDVTKTNTTDVATFKSVNYGPLGYIHNGKIDYQRTPARKHTSDTPFDVSKLNELPKVGIVYNYANASDLPAKALVDAGYDGIVSAGVGNGNLYKSVFDTLATAAKTGTAVVRSSRVPTGATTQDAEVDDAKYGFVASGTLNPQKARVLLQLALTQTKDPQQIQQIFNQY”, the “total protein half-life in vivo” value under setting [1] was found to be 5.6 ± 1.2 h; the “total protein half-life in vivo” value under setting [2] was 6.41 ± 0.082 h; the “total protein half-life in vivo” value under setting [3] came out at 5.53 ± 0.3 h; the “total protein half-life in vivo” value under setting [4] worked out at 6.23 ± 0.81 h; the “total protein half-life in vivo” value under setting [5] amounted to 5.38 ± 0.38 h; the “total protein half-life in vivo” value under setting [6] is more than 16 h. The “total protein half-life in vivo” value reads like this: under setting [7], 6.03 ± 0.47 h; under setting [8], 12.3 ± 0.7 h; under setting [9], 6.54 ± 0.46 h; under setting [10], 13 ± 0.46 h.
“MIHAFIKKGCFQDSVSLMIISRKLSESENVDDVSVMMGTPANKALLDTTGFWHDDFNNATPNDICVAIRSEAADAGIAQAIMQQLEEALKQLAQGSGSSQALTQVRRWDSACQKLPDANLALISVAGEYAAELANQALDRNLNVMMFSDNVTLEDEIQLKTRAREKGLLVMGPDCGTSMIAGTPLAFANVMPEGNIGVIGASGTGIQELCSQIALAGEGITHAIGLGGRDLSREVGGISALTALEMLSADEKSEVLAFVSKPPAEAVRLKIVNAMKATGKPTVALFLGYTPAVARDENVWFASSLDEAARLACLLSRVTARRNAIAPVSSGFICGLYTGGTLAAEAAGLLAGHLGVEADDTHQHGMMLDADSHQIIDLGDDFYTVGRPHPMIDPTLRNQLIADLGAKPQVRVLLLDVVIGFGATADPAASLVSAWQKACAARLDNQPLYAIATVTGTERDPQCRSQQIATLEDAGIAVVSSLPEATLLAAALIHPLSPAAQQHTPSLLENVAVINIGLRSFALELQSASKPVVHYQWSPVAGGNKKLARLLERLQ”: the “total protein half-life in vivo” value under setting [11] was 2.65 h and the “total protein half-life in vivo” value under setting [5] turned out to be 4.54 h.
Consider “MQKIVIVANGAPYGSESLFNSLRLAIALREQESNLDLRLFLMSDAVTAGLRGQKPGEGYNIQQMLEILTAQNVPVKLCKTCTDGRGISTLPLIDGVEIGTLVELAQWTLSADKVLTF [P0AB52]”, for which the “total protein half-life in vivo” value was 5.73 ± 0.71 h under setting [12]; 5.32 ± 0.28 h under setting [1]; 4.94 ± 1.6 h under setting [2]; 5.96 ± 0.57 h under setting [3]; 4.81 ± 0.086 h under setting [4]; 2.64 ± 0.25 h under setting [11]. Besides, the “total protein half-life in vivo” value turned out to be 6.4 ± 1.1 h under setting [5]; 13.2 ± 0.93 h under setting [6]; 5.55 ± 0.19 h under setting [7]; 10.1 ± 0.94 h under setting [8]; 5.43 h under setting [9]; 12.5 ± 1.7 h under setting [10].
Consider “MKTALLLEKLEGQLATLRQRCAPVSQFATLSARFDRHLFQTRATTLQACLDEAGDNLAALRHAVEQQQLPQVAWLAEHLAAQLEAIAREASAWSLREWDSAPPKIARWQRKRIQHQDFERRLREMVAERRARLARVTDLVEQQTLHREVEAYEARLARCRHALEKIENRLARLTR”, for which the “total protein half-life in vivo” value runs as follows: under setting [12], 4.68 ± 0.36 h; under setting [1], 2.5 ± 0.12 h; under setting [2], 2.39 ± 0.15 h; under setting [3], 4.09 ± 0.54 h; under setting [4], 2.21 ± 0.046 h; under setting [11], 1.955 ± 0.0034 h. Further, the “total protein half-life in vivo” value came to 3.69 ± 0.51 h under setting [5]; 6.06 ± 3.5 h under setting [6]; 2.58 ± 0.12 h under setting [7]; 2.85 ± 0.6 h under setting [8]; 2.92 ± 0.094 h under setting [9]; 5.17 ± 0.34 h under setting [10].
In the case of “MSHTIRDKQKLKARASKIQGQVVALKKMLDEPHECAAVLQQIAAIRGAVNGLMREVIKGHLTEHIVHQGDELKREEDLDVVLKVLDSYIK”, the “total protein half-life in vivo” value by setting is: under setting [12], 7.38 ± 0.4 h; under setting [1], 7.02 ± 0.26 h; under setting [3], 6.29 ± 0.15 h; under setting [11], more than 4 h; under setting [5], 7.3 ± 0.65 h; under setting [6], 10.8 h. Further, the “total protein half-life in vivo” value reads like this: under setting [7], 5.53 ± 0.39 h; under setting [8], 11.2 h; under setting [9], 4.14 ± 1.8 h; under setting [10], 11.9 ± 0.86 h.
Take “MSQIHKHTIPANIADRCLINPQQYEAMYQQSINVPDTFWGEQGKILDWIKPYQKVKNTSFAPGNVSIKWYEDGTLNLAANCLDRHLQENGDRTAIIWEGDDASQSKHISYKELHRDVCRFANTLLELGIKKGDVVAIYMPMVPEAAVAMLACARIGAVHSVIFGGFSPEAVAGRIIDSNSRLVITSDEGVRAGRSIPLKKNVDDALKNPNVTSVEHVVVLKRTGGKIDWQEGRDLWWHDLVEQASDQHQAEEMNAEDPLFILYTSGSTGKPKGVLHTTGGYLVYAALTFKYVFDYHPGDIYWCTADVGWVTGHSYLLYGPLACGATTLMFEGVPNWPTPARMAQVVDKHQVNILYTAPTAIRALMAEGDKAIEGTDRSSLRILGSVGEPINPEAWEWYWKKIGNEKCPVVDTWWQTETGGFMITPLPGATELKAGSATRPFFGVQPALVDNEGNPLEGATEGSLVITDSWPGQARTLFGDHERFEQTYFSTFKNMYFSGDGARRDEDGYYWITGRVDDVLNVSGHRLGTAEIESALVAHPKIAEAAVVGIPHNIKGQAIYAYVTLNHGEEPSPELYAEVRNWVRKEIGPLATPDVLHWTDSLPKTRSGKIMRRILRKIAAGDTSNLGDTSTLADPGVVEKLLEEKQAIAMPS”: the “total protein half-life in vivo” value was determined as 4.67 ± 0.31 h under setting [12]; 4.83 ± 0.67 h under setting [1]; 3.24 ± 0.14 h under setting [2]; 3.54 ± 0.24 h under setting [3]; 3.221 ± 0.018 h under setting [4]; 2.89 ± 0.091 h under setting [11]. Further, the “total protein half-life in vivo” value under setting [5] was 4.91 ± 0.44 h; the “total protein half-life in vivo” value under setting [6] came to 7.66 ± 0.46 h; the “total protein half-life in vivo” value under setting [7] was 3.88 ± 0.81 h; the “total protein half-life in vivo” value under setting [8] is 4.67 ± 0.55 h; the “total protein half-life in vivo” value under setting [9] is 4.28 ± 0.03 h; the “total protein half-life in vivo” value under setting [10] amounted to 7.43 ± 0.81 h.
In the case of “MPYLLEMKNITKTFGSVKAIDNVCLRLNAGEIVSLCGENGSGKSTLMKVLCGIYPHGSYEGEIIFAGEEIQASHIRDTERKGIAIIHQELALVKELTVLENIFLGNEITHNGIMDYDLMTLRCQKLLAQVSLSISPDTRVGDLGLGQQQLVEIAKALNKQVRLLILDEPTASLTEQETSILLDIIRDLQQHGIACIYISHKLNEVKAISDTICVIRDGQHIGTRDAAGMSEDDIITMMVGRELTALYPNEPHTTGDEILRIEHLTAWHPVNRHIKRVNDVSFSLKRGEILGIAGLVGAGRTETIQCLFGVWPGQWEGKIYIDGKQVDIRNCQQAIAQGIAMVPEDRKRDGIVPVMAVGKNITLAALNKFTGGISQLDDAAEQKCILESIQQLKVKTSSPDLAIGRLSGGNQQKAILARCLLLNPRILILDEPTRGIDIGAKYEIYKLINQLVQQGIAVIVISSELPEVLGLSDRVLVMHEGKLKANLINHNLTQEQVMEAALRSEHHVEKQSV”, the “total protein half-life in vivo” value under setting [11] came out at 2.9 ± 0.53 h, the “total protein half-life in vivo” value under setting [6] was found to be 7.37 ± 2.8 h and the “total protein half-life in vivo” value under setting [10] is 9.14 h.
